Assay results as given in a protein production outcome set (Wang et al. 2014).

Assay: label from the status in PepcDB records

Sequence	protein production
MQRLQHYYQCFLAQLKNFDGIPALLLRLYLAPVFIMAGFSKTQMLNEEVTGFSAIMADPNIIAWFGNSDWGLGLPFPALLANLVILVEFFGGWFLLFGALTRLISIPLMFTMIVAATSVHADNGWFAITPTNSDISPAKVAVWLGIDSAQASLDNSEQTATRLEKMRELIEENGNTDWLYENGNIVVLNNGIEFSTTYFIMLLSLFFIGAGRYTSVDHFVAKRFLIEEKRFS	failed
MKASIEQLEPYVPEKPLATLQAELGLTELVRLSANENPYGTSPKVATAVKNWDFTQSNRYPDADAQELRQAVAQQQGIDPNSIVFSVGLDEMIVMLSRTFLATNDQVLVSAPTFSEYGLHAEIEGGQLISVPTLPNDHVNFEGLMKAITPHVKMVWLCNPNNPTGTVESLAAIEAFVQQVPPETMVLIDEAYIDFTPGAAQVTAMQLPAKYPNVVVMRTFSKAYGLANFRIGYAVFNTKYAATMQTIRLPYNVNSLAQVAALAAIDDPNFVKQTVQKNATERAKWMAFFDDQGVTYDQSGANFIFFKYPSATQLADYLVHHGYLIRTGLRPGWLRLTVGTANDNQQLQQLIREFKA	failed
WQPATERLQVTYLGKVSTTGMQFLSGCTEKPVIELWKKHTLAREDVFPANALLEIRPFQVWLHHLDHKGEATVHMDTFQVARIAYCTADHNVSPNIFAWVYREINDDLSYQMDCHAVECESKLEAKKLAHAMMEAFRKTFHSMKSDGRIH	failed
TLRKARVKGLFLLSSGLQFSQSDHHPGGIPLAVIRHMSRQLKRNRTDTLTSFYEQMFSESEKSHGLDQAFLQTLEAGDPFYHWQNESLIAGLDYLANVQLLQGWPTVSVPITWIHGSDDTICPSPASGLFSPSKRLIIVEGAGHVPFYTQDSVVINAWEELLGN	failed
MTSGTSVINDKVLQYETFISEVLRRDLQKVLEQRDAVYEKIAQYLQLKNTIQSIQESGSKELKTDVDLGCNFYVQAHVPDASRIYVAVGYGFFVEFTHAEALKFIEKKTNQLTEYTEVLTKDAAKIKANIRMVLEGLRELQGLKDLPEDRRREVF	not failed
MDIIRKISHFAGQTFGIWVIVFAVLGFSFPSLFTWISSYITIFLGIIMFGMGLTLQADDFKELVRKPWQVIIGVIAQYTIMPLVAFGLAFGLHLPAEIAVGVILVGCCPGGTASNVMTFLAKGNTALSVAVTTISTLLAPVVTPLLIMLFAKEWLPVSPGSLFISILQAVLFPIIAGLIVKMFFRKQVAKAVHALPLVSVIGIVAIVSAVVSGNRENLLQSGLLIFSVVILHNGIGYLLGFLCAKLLKMDYPSQKAIAIEVGMQNSGLGAALATAHFSPLSAVPSAIFSVWHNLSGSMLATYWSKKVKKKQAGSKSSNLSL	failed
MNVWLLGRGELRRRHDDVLQLERAFLTDRTGLHFVNARSSEDLLALAESRRAEQQWPVLDAEWISPVGTDTCDDLVWQNLESTLDGRPDTFYSTAGFEAGNTLSGTGELAPGEAFLAYRFWRPVRVYAVQLRAFQADFHPGRPVYPFQVARVGVGCSLQAGMSLSYGADASAPGTSCNYRCFCTTEQQTLVFDDPMVGVYLVICLKGFPQQQLTDRLHYAAVSGIRVFGEPISSPALENELSCLISRGFILDGRDAARWLDLRSAQEHAAPMHIPEDEVI	not failed
MENNGEMNAQPELSGIIDITKTYMYEKLWNICAGPLCVLPKPGEKVYYFPQGHIELIENSTRDELDHIRPIFDLPSKLRCRVVAIDRKVDKNTDEVYAQISLMPDTTDMSQPISTQNLVAKDLYGQEWSFKHVFRGTPQRHMFTSGGGWSVFATTKRLIVGDIFVLLRGENGELRFGIRRAKHQQGHIPSSVISANCMQHGVIASVVNAFKTKCMFNVVYKPSYDKFVDAMNNNYIVGSRFRMQFEGKDFSEKRYDGTIIGVNDMSPHWKDSEWRSLKVQWDELSPFLRPNQVSPWDIEHLIPSSDISQSSATLSNLWTCQEIGQRSMNSPISVPEFSYPNAIEDSKFLSGLLLNHSLLAIPNENYNSDQMIQPRKEDITTEATTSCLLFGVDLTKVHMQGVAISRAVDLTAMHGYNQLIQKLEELFDLKDELRTRNQWEIVFTNNEGAEMLVGDDPWPEFCNMAKRIFICSKEEIKKMKLKNKFFQPESKALTSSDVPPNVTDN	failed
MFWDSSRLIKLIGFFCLLLAQPLHATILSSALLNEAQQLAEIEPAQAKQAAKNYLSQRELTERKESGSPSAMSREETDRSIRTPASTIEAHKIIAQADYTMGNVRSAIDNLNEAEKLAKEYQLPYMTLDVQLMRNQMIWMYDHNYSAAEDALNQIEKQLDEADSVLQRTDSVRYRLVMQRALLAAHRGDNVGAERLYAQAKSMLEDSRSDLALIDYYTSVGEFYLNSKKYNLALSELLYGYWQSIESDSGTRLAKVNRLLARLFQERRVYDKAIEYLSQAADFYDSYPSSPILADVLEQMGDIYFYQGKFNLALVHYFNVLDHESTSRNINRTIKIRLSLAATYLQLYNYALAEQYLERATELLEYADIPQLEAKAALLKSGLAYHQNDSKKVIENAKKALELVEKAPENKNFIKQQSYRLLGLGYEQAGEYQLSLQAYKKYTSLVRLEQKQLNQISEDAFRQQKEFAEQTIHYVGQSERLEQVEMEHRKFQKISFALFITVLVMFLFIMRRGVIMQRQAGEIEKLRNDLFTHSRSRLRNLRMLNVKLSRSLKKSRDTFEQWQMGELIHEPLNDRLRFVMIDLPFLRSMYVQNGYKAGLELERAFGEYLAERIEKPARLYHFSDANLLYIEPNADRDASAEVMFEKFQAWVDEFATQHNVNRIIRMGISDYPFLPRAYTAINDEELLDLLLLATHIAREVSLKDKQSHWVFLKAIDNAPAASFATGNIRTACQHAINQGLIKIHSSYKNEDDIKKILKNG	failed
MNHRDKQIDSGSGSGENRRTYDCDICKRGFTNPQALGGHNNIHRRERERYPSSSSSSHSFPFSLPLPSQSPSSSTNFTNPPPYFPTIESYLHQGSQPPINPSHNTQYFGSSSSSRGGGRFAQGASHDLNLSLGLGSMNEDDDTHRSPPETGGSQPQDGDLDLDLRLGGHRHH	failed
MEQMIFIRKDDKVEVFSEEEELKGSYYRAILEDNPTKSGHNKLKVRYLTQLNEHRLAPLTEFVDQRFIRPVPSEDVNDGVVFVEGLMVDAYLKDGWWTGVVVKTMEDEKFLVYFDCPPDIIQFEKKKLRVHLDWTGFKWIRPDNKELVKSVFSCGTMVELRFDCAWIPVIVIKELEKDKRFLVKYWNKSYSCRESKNLIVDSLRLRPMQPPLSVGKYELLDHVEAFSGFEWRQGVVRGIVFEGRYMVSFGATKEASQFNHSDIRPPMEWEDGVWHKRTKPKRQKETSLDGNRNVQTKEPPGNEMADDVKKESGLPITLGVTATKNKTQGKVSPVPMKNGFGNESTREKMPEEPKIKYYTRKRKRGGLKLNSYINKTVLSSDRTPNVVKNSASNAEENHAKHTIMVLPFAKKSPVWKTYESLEVFKSVSHSLHFSPLFETKQDFREGYAIGMMVTYFGLLEKFKDLEADVPVSQLNSLKDSFSELEKHGFNVTTPLSRIDKLLALKDRQLYIMEELKGFDKEMTNEFSKAKQEFDDMEQKILEVKHKIIELQRQEAALKEQKEAEKEQKDAAWKKICQMESCAKDLNVELEDVEFEFETILSAPW	failed
ENDVRVETTLHQNTRIYDVRGQLFFSSSERFAKAFDFQENVAHVIIDLTHSHIWDVTTVASLDHIVDKFQKNGIQVTVKGLNEASSIMIEQYGTHSKI	failed
VWICTKCVRCKSCGSTTPGKGWDAQWSHDFSLCHDCAKLFAKGNFCPLCDKCYDDDDYESKMMQCGKCDRWVHSKCENLSDEMYEILSNLPESVAYTCVNCTERHPAEWRLALEKELQISLKQVLTALLNSRTTSHLLRYRQAAKPPDLNPETEESIPSRSSPEGPDPPVLTEVSKQDDQQPLDLEGVKRKMDQGNYTSVLEFSDDIVKIIQAAINSDGGQPEIKKANSMVKSFFIRQMERVFPWFSVKKSRFWEPNKVSSNSGMLPNAVLPPSLDHNYAQWQEREENSHTEQ	failed
MRNLLQKCFKWQWLVCLAVGCCFSSCKDDEESTSGYDPNKPIVLTDFYPPEGKLATQVILNGSNFGDSKENVKVFFNDKEASVISVKDDRMLVLAPKRASTIEDPECVVKVQVHEQIEEYKQTFDYYIQTTVTTLVGGSTSAQVNPTGTIPLSEAQFRANIDRCICVDQDKNVFFLVDNDGKFAAFMLNEEADKLISLKSDINALFNSPVLGYNSKDDIVYQFWANRDSHEVYYFDPKTDYAPTTAISSISWDDPNFPNIEGFGVWAAKCNFTMGPDGKMYSRMLGGNLVRIDVENARGENLTNGDLVGTKDGSAYGLVFDPQDENVFYFSNNDKHCIYKYDLRTKECACWAGQEGKSGYLDGPIGQAMFNKPGQMCVDSEGNIILTDTENHCIRKITMSTGYVSTLAGKPQNSGYVNGSAEDAQFKKPLGICIDNDDVMYIGDSENRAIRRLAVELEHHHHHH	not failed
MAMSLSGAVLSGMGSSFHNVGAKQSGVGTVRVGRKSELVVVAQRKKSLIYAVKSDGNILDDLNEATKKASDFVTDKTKEALADGEKTKDYIVEKTIEANETATEEAKKALDYVTEKGKEAGNKAAEFVEGKAEEAKNATKS	failed
MTLFTLLLTLAWERLFKQGEHWQIDHRLEVIFRHVSPPSLFQTLFLTLCSMGVVAALLWLTSGILFGLISLLLWIVISLMCIGAGEIRQHYRRYLQAAQRGESDASREMAAELALIHGLPVGTSESEQLKELQNALLWINFRFYLAPLFWFVVAGPYGPVTLMGYAFLRARQTWLARHHTPLERAQSGVDSLLHWLDWIPARLAGAAYALLGHGEKALPAWFASLGDSRSSQYWVLTQLAQFSLARESHIEPVETPKAAVTLAKKVTLVLVVVVALLTIYGALV	failed
MTDNRKFEIVADTELPGTPERVWQAVTKDTPAWMFPTDQWPDVKTTEEYPSHLVSRMDGPDGWFNQLEHVLEPLEGGRAKLHYVHSGIFADNWDEQYDGASKHTEFYLHTLGQYLQHFDGKPVVFTDIQAPPSSQAPDGFVQLKQALGVDGLPTGTSVDVDIDGVGRLSAEVDFSNENFLGLRTADTMYRFFGRNVFGAPVGMTVHEFSGSGDSELTAKAWGAFLEKVYALEHHHHHH	failed
MMSNGGDSSEIVRELEELKLKKAEIEHRISTLEAKLQDTAAVELYDAVSNGDSYLTAPELEHGLSPDQIYRYSRQLLLPSFAVEACGVGQLGIIDHDVVELNNMHRQIIHTEAFIGHPKVKSAAAACRSINSTIKVDEYVEALRTSNALEILSQYDIIVDATDNPPSRYMISDCCVLLGKPLVSGAALGMEGQLTVYNHNGGPCYRCLFPTPPPTSACQRCSDSGVLGVVPGVIGCLQALETIKLASLVGEPLSERMLLFDALSARMRIVKIRGRSSQCTVCGDNSSFNKQTFKDFDYEDFTQFPLFAGPLNLLPAESRISSKEFKEILQKKEQHVLLDVRPSHHYKIVSLPDSLNIPLANLETRLNELTSALKEKGNGHANTESCTNPSVFVVCRRGNDSQRAVQYLRESGFDSAKDIIGGLEAWAANVNPNFPTY	failed
MKIATYNVRVDTEYDQDWQWSFRKEAVCQLINFHDWSLCCIQEVRPNQVRDLKAYTTFTCLSAEREGDGQGEGLAILYNEQKVQAIDTGYFWLSETPQQPSIHPEAGCPRIALWGLFKETTQNTPFLVINVHLDHISAHARLAGMTVILEELHDKIAQYPTLLMGDFNAESGEEVHQLVQKKFQDSKNLATHYGPRGTFQNFTYTKPWAELEEIDYIYVKGWQVQQTASLTDSIDGRFPSDHFPLEAEVCIEE	failed
